Experimental data as given in the PETadex activity labels.

B1: unnamed (protein)
chain: MKTTTIIKSTLCAFTLTFSLSAFSGGGGGGGGGNNGNLPPPDTCNTNCGYEIGPNPTLGFLQASQGPLPVSSTNVSSSVNGFGGGTIYYPSNISDEMAAISIAPGFTNTQSAVAWWGPILASHGFVVITINTNSRFDQPESRSRQLDSALSYLISEGDRGSSPISGLVDENRLATMGFSMGGGGSLRSASRNRLSAAVPLAPWSTGSNNFDDIGVPTLIMACENDTTARVNTHASPFYNAIPGSTDKAFMEINNGPHNCANGESSTNRSLLSTYGVSWMKRFLDKDRRYNQFLCGPNHEANSRISEYRDTCSYG
B2: unnamed (protein)
chain: MISNRRAPARRAGAALTALALAVVLAACDIRGPAPTEQILEAPSGPFAVGSVAVPSSAGFGGGTIYYPSEAAGPFGIIAVTPGFLGNQTSIGTWGPRLASHGFVTITINTTGGFILPDQRSAEQRQALTYVVNQGNRSSSPIFGKVDGDRKGVAGHSMGGGGTLVSAREDPTIRAAVPFAPWYTSTNFSNVTVPTLIVACQSDGVAPVASHASPFYNSIPATTDKSYISVAGADHFCANSPTGGANDVGKYVVAFFKRFVDGDTRYDPWVCG
B3: unnamed (protein)
chain: MKTSRHSTATTTLTRLARLALAAAAVLLSAAAQAQVVIFQENFNSGLGQFTASGTVSTSSGGARMQGCGGGTDGTITSSPISTVGFTNLKLSFDRTTTGLDSGEAGIAEYSVNGSTWTVIESTQSSSGRVTIALPAAAAGQAALRLRFRVNASLSSETYTVDNIPLAGTPGGNSAPGPGGTPYQRGPDPTAASLEASDGPFAVATLTVSSASGYGAGTIYYPTNTEGPFAAIAVVPGYTGTQSSIQWLGPRLASHGFVVITIDTNSLSDNPESRATQLMAALNQLVTLSNTSGHPIYGKVDSNRLGVMGHSMGGGGTLVAARDNPTLKAAIPLAPWYSSTNFSGVTVPTLVVACQSDTVAPVSSHALPMYNSIPSSTDKAYLEISGGDHLCVTTGNGNKAIQGKYVVAWMKRFLDNDTRYSPFLCGAPHQADLSGSAVSEYRDTCPY
B4: unnamed (protein)
chain: MERHNSRRRWGMGLGLLLLAASAHAQYQKGPDPTSASLNASSGPFSVATSSVSSLAAVGFGSGTIYYPTTAGSYAVLAICPGFTATESSIAWLGRRIATHGFVVITINTDSTLDQPPSRATQLMAALRHVTESSSATVRSRVDASRRGVAGHSMGGGGTLYAARDNPSLKAAVPLTAWSTTKTFSSMQVPTLVVGAENDSIASVNSHSIPFYNGLPGSLDKAYAELNGASHFAPNTTNTPIGRYSVAWVKRFMDEDTRYSPFLCGAPHQSYA
B5: unnamed (protein)
chain: MIKDFLLSRVVIVAGTLIFSMPTLAEITVSETTVVIPKEALPVPTLSNCITDSAITADALSDTRDNGPFTVSTKRVPRQSANGFGGGTIHYPTNASGCGLLGGIAVVPGYVSYESSIKWWGPRLASWGFVVITINTNHISDNPDSRATQLNAALDHLLLDSTVANMVDRDRLGVIGWSMGGGGALRLATDRSTVRAIIAQTPYHDTSYPTMDTPALFIACENDRIAPNKKYTNVFYNNATGPKMKVEVSNGSHFCASHGFHEILLSKPGIAWMQRYINGDTRFDQFLCSSENYNSSPRISSYNYKNCL
B6: unnamed (protein)
chain: MAKFTGAAQFLKASMAIGAIVLSAAASAQTNPYQRGPAPTDSSLAADRGPLAYSSFTVSRPSGYRAGTVYYPTNAGGTVGAIAVVPGFTAYQSDINWWGPRLASWGFVVITIDTNSTLDQPSSRSRQQLAALDQVATLSRTSGSPIYNKVDTSRMGVMGWSMGGGGSLISTQNRPSLKASIPFAPWNGTSSFSSVTTPTFIIACQSDLIAPVASHANDFYNSLSRPPKMFLEIRGGSHYCANSSNGNKDVLGAKGVAWMKRY
B7: unnamed (protein)
chain: MRHRSISALVLGTAVVAGAAQAQINPFAKGPDPTPASIQATGPFAISMQTVPRAAGFGGATVYSPNDPGSYALVVLCPGFIETQSAISAVGQRLATHGFVVATIDTVTTIDFPASRGTQLIAALQTITALNTGPVAGKIDTTRLVVGGHSMGGGGTLEASRTNPAIKAGLPIAPFHFVKQFNTPVPQLITGGQVDAIAPVGQHAIPFFEMLPDATPKIYAELTGGNHFFVTQNPPNQPINKLLLAWTKRFADNDLRYEQFITATAVQAEVANGALSQTRREATPF
B8: unnamed (protein)
chain: MTTKRHRTATTPTRRARLALLAAATLLSFAAQAQVVIFQENFNSGLGQFTASGTVSTSSGGAVMQGCYNCTDGAITSKPISTVGFTNLKLSYDRTTTGLDSGEYGVAAYSVNGGAWTVIESIQSSSGRVTIALPAAAANQASLRLRFRVNASLSAETFTVDNVVLEGTPGGAPGPGGNPYQKGPDPTAAALEASAGPFTVATTTVSASSASGYGGGTIYYPTNVAGPFAAIAVVPGYTATQSSISWWGPRLASHGFVVITIDTNSTSDLPASRATQLMAALNQLKTFSATSGHAIYGKVDPNRLGVMGWSYGGGGTLIAARDNPTLKAAIPLAPKTSSGTDFSGITVPTLIVGCESDTTAPVSSWAIPFYNSIPASTKKAYLEINNGDHFCVTTSNSSADKAILGKYGVAWMKRFLDNDTRYSPFLCGAPHQADLSGNAAISEYRDNCPY
B9: unnamed (protein)
chain: MTEKDTSMKFFQATLSLTVGVLLTTALSGTALAESAYLRGPAPTVASVEAPAGPYQVTSQVMKDPVGYKAGTVFYPSDAQGQSFGLIVVAPGFIETQSWNAWWAQYLASHGFVVINIDTQSTLEFPAARAKEELAALNDVVRRSTQPDSPLFGLVDASRQGAMGHSMGGGATLEIAKANPYLKAIVPMAPFQTSGTDYSKLTVPTLIMACKGDVVATASSHSEPIYKSLSPSLDKAYLEMQGGAGHPCTTSVGTSDKVRTLAGKYGLAWFKRFLDEDTRYSQFLCGIPHGLDMFGKVISGYKGNCPY
B10: unnamed (protein)
chain: MKTLFKAAVLCGAMLTSLGVLAQANPYQKGPDPTVSNLEAARGSFAVSSTSISGLSATGFGGGSLHYPTAAGSYGLIAVAPPYLAQSSSIAWLGPRLASHGFVVVMIDVNSTLDFPESRSRQQLAAIDYAIAQSARTTSPIYRKVDTTRRGVSGHSMGGGASILTARNAPANIKGAFPLTPWSSDKNFSSLQVPTGYLACESDTVAANADHSLNFYNRMPASTPKGYYELRGESHFCPQSTANNPVIGKYLVAWMKRFVDNDTRFSPFLSGALPNADLSSRRFSALRTSGL
B11: unnamed (protein)
chain: MERGNHRAKWAIGFGLLLLGAAAHSQTNPYQKGPDPTSATLNATSGSFAVATSTVSSLAANGFGGGTIYYPTQTGTYAVLAISPGFTATQSSIAWLGRRISTHGFVVITIDTNSTLDQPPSRATQLMAALRHVTDLSSSTVRSRVDASRRGVAGHSMGGGGTLIAARDNPSLKAAVPLTAWSTTKIFSTVQVPTLVVGAESDSVAPVSSHSIPFYNSLSNSLDKAYAELNNASHFAPNSTNTPIGRYSVAWVKRFMDNDTRYTPFLCGTPHTSYATSTVFSDYRSTCPY
B12: unnamed (protein)
chain: MSLDVWEWSTEAGGDIRQWDYLGADNQKWRINDLGNGYHSIISAYNGLSLDVYEWSTSNGGDIRQWDYTGAENQQWAFQPTGTSGGGSTGGGSTSCVSSSDITSSKLSATGASGPYSVRSKGVSNWSASGFGGGTIWYPTNASACGRMPGIAVVPGFLSYESSIRWWGARLASWGYVVITIDTNSIYDQPPSRGRQLSDALDHIIYDSTTRNMVDPNRLGAIGWSMGGGGSIWLANNRPEVKAIIPQAPWYLTTTSTSKPAFYIACESDTVAPTYSHVDDFYRYSTGPKMKIEINNGSHWCANSGNGNEGTLGKAGISWMKRYINGDTRFNQFLCGQENYGSRYDVSDYDYASCP
B13: unnamed (protein)
chain: MKHFHRFGATLFRGAAIAGPLALLGVAHAQTTAPTSASLNATAGPLSIASSTVSSLAANGFGGGTIYYPTASGRFGVVAISPGFTASQSTIEWLGRRMASHGFVVITIDTITTLDYPDSRATQLRAALDHVINRASTTVRNKVDPARRAVAGHSMGGGGSLIAAQADSTLKAAYPMTPWNITENFSRVRVPTMIIGADGDTIAPVTSHARPFYASIPNTTFKAYGELNNATHFAPNVTNTPIGRYGVAWMKRFVDGDTRYSTFLCGAEQNRYNTSLVFDQYRSNCPY
B14: unnamed (protein)
chain: MDWPRPRCVRRRTSNGQRRSTTCRGDIPMSTRVTHSRLTLIRCLALAAPLMCLGLAQAQTSPPTSESLNARSGPLSIASENVSRLAARGFGGGTIYYPRTSGRYGLIAISPGFTATESSVAWIGEKLASHGFVAIVINTNSTLDQPSSRARQLRAALDHAISSASSTVRNRIDPSRQAVAGHSMGGGGSLIAAEDDPSLKAAFPLTPWNTSSSFTRVRVPSMIFGADGDTIAPVAVHARPFYGSIPRTTSKAYAELQSATHFAPNVRNEAIGRYGVAWMKRFMDGDTRYSTFLCGSEHDRYNTSLRFDQFQSNCPY

The proteins below were run on BHET. Conditions: 120 h.

Protein | plate clearing
B1 | not clears the plate
B2 | not clears the plate
B3 | clears the plate (z > 3 vs empty vector)
B4 | not clears the plate
B5 | not clears the plate
B6 | not clears the plate
B7 | not clears the plate
B8 | not clears the plate
B9 | not clears the plate
B10 | not clears the plate
B11 | not clears the plate
B12 | not clears the plate
B13 | not clears the plate
B14 | not clears the plate
